Reference: US20210079074A1 (Alector, published 2021)
Where two headings read alike, the source gives them in different places.

How the values were obtained:
[1] = target: T1, FcγRIIa receptor (H131 variant) (UniProt P12318 34-317, limits assumed); experiment: cell-based or functional assay
T1 sequence (looked up): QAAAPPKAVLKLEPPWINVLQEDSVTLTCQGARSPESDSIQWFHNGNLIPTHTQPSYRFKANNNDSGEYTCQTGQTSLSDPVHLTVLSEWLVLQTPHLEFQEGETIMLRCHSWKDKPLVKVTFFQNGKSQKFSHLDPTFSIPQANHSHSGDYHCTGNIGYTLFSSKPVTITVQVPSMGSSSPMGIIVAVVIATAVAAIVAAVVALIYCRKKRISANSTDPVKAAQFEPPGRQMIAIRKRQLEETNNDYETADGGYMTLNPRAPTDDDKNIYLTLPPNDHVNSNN

[2] = target: T2, human MS4A4A (human, UniProt Q96JQ5 1-239); experiment: cell-based or functional assay
[3] = target: T2, human MS4A4A; experiment: cell-based or functional assay; remark: listed apart in the source
[4] = target: FcγRIIIa receptor (V158 variant) (UniProt P08637 17-254); experiment: cell-based or functional assay
[5] = target: T3, recombinant MS4A4A soluble polypeptide JS5; experiment: ELISA, biotin-antigen on streptavidin plate
T3 construct: also called JS5.His
Procedure: (§1) Anti-MS4A4A antibodies of the present disclosure were tested for their ability to bind to the different recombinant MS4A4A soluble polypeptides, as described in Example 2, as follows. Nucleic acid encoding the VH and VL domains of humanized anti-MS4A4A antibodies of the present disclosure were cloned into pcDNA3.4 vector which contains either the human IgG1 heavy chain constant domain or human kappa constant domain. The humanized anti-MS4A4A antibodies were expressed in Expi293 cells and were purified by Mab select antibody purification resin (GE Healthcare Life Science, cat#17519902) following the manufacture's protocol. ELISA was performed to measure binding of anti-MS4A4A antibodies of the present disclosure the recombinant MS4A4A soluble polypeptides. 1 μg/ml biotinylated antigens were preincubated on the streptavidin-coated ELISA plates (Thermo Scientific, cat#PI15120) for 1 hour. Plates were washed 3 times, followed by the addition of antibodies (1 μg/ml, 0.33 μg/ml, and 0.11 μg/ml antibodies. Plates were incubated at room temperature with shaking for 1 hr, washed 3 times, then 1/2500 dilution of HRP conjugates goat anti human kappa antibodies added (SigmaAldrich cat#. A7164-1ML).

[6] = target: T4, negative control polypeptide JS4; experiment: ELISA, biotin-antigen on streptavidin plate
T4 construct: negative control for JS1; also called JS4.His
Procedure: as §1

[7] = target: T5, recombinant MS4A4A soluble polypeptide JS1; experiment: ELISA, biotin-antigen on streptavidin plate
T5 construct: also called JS1.His; loop grafted antigen
Procedure: as §1

[8] = target: T6, recombinant MS4A4A soluble polypeptide JS6; experiment: ELISA, biotin-antigen on streptavidin plate
T6 construct: also called JS6.His
Procedure: as §1

[9] = target: T7, negative control polypeptide JS10; experiment: ELISA, biotin-antigen on streptavidin plate
T7 construct: negative control for JS5 and JS6; also called JS10.His
Procedure: as §1

[10] = target: T2, human MS4A4A; experiment: FACS, U937-huMS4A4A, 5 ug/ml
In short: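 U937 cells expressing human MS4A4A were viability-stained, then 2×10^4 cells/well were incubated with mouse hybridoma IgG or recombinant human IgG1 Fc chimera in PBS/2% FBS/1 mM EDTA. A secondary antibody was then applied on ice for 15 min. Binding was read by flow cytometry as median fluorescence intensity.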

[11] = target: T2, human MS4A4A; experiment: FACS, U937-huMS4A4A, 5 ug/ml; remark: listed apart in the source
Procedure: Anti-MS4A4A antibodies tested were either mouse IgGs purified from hybridoma supernatant or human IgG1 Fc chimeras produced recombinantly in Expi293 cells. Affinity binding to cells was determined as follows. Briefly, cells were harvested, washed, and labeled with Aqua Live/Dead for viability discrimination. After a wash with PBS, 2×10\hat{ }4 cells were aliquoted per well in 96-well U-bottom plates and incubated with 50 μL of purified anti-MS4A4A antibody at various concentrations (3× dilutions starting at 10 μg/mL) in FACS buffer (PBS+2% FBS+1 mM EDTA). After this primary incubation, the supernatant was removed via centrifugation, washed 2× with 150 μL of ice-cold FACS buffer, and incubated with the appropriate secondary antibody on ice for 15 minutes. Following the secondary antibody incubation, the cells were again washed 2× with ice-cold FACS buffer and resuspended in a final volume of 200 μL of FACS buffer. Flow cytometry analysis was performed on a FACSCanto system (BD Biosciences). Binding data was expressed as Median Fluorescent Intensity (MFI).
These experiments were performed using anti-MS4A4A antibodies at a concentration of 5 μg/ml and were assayed for cell binding by flow cytometry.

[12] = target: T3, recombinant MS4A4A soluble polypeptide …; experiment: ELISA, 0.33 ug/ml antibody
Procedure: as §1

[13] = target: T3, recombinant MS4A4A soluble polypeptide …; experiment: ELISA, 1 ug/ml antibody
In short: (§2)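 Read-out is HRP-conjugated goat anti-human kappa (1/2500) bound to humanized anti-MS4A4A IgG1 captured by biotinylated antigen (1 μg/ml) immobilized on streptavidin plates. Antibodies, tested at 1, 0.33 and 0.11 μg/ml, were incubated 1 hr at room temperature with shaking.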

[14] = target: T5, recombinant MS4A4A soluble polypeptide …; experiment: ELISA, 1 ug/ml antibody
In short: as §2

[15] = target: T8, huMS4A4A-ECL2 free-peptide (human); experiment: peptide ELISA, murine antibody
T8 construct: synthetic, free or BSA-conjugated, coated on the plate; also called human MS4A4A ECL2 peptide; huMS4A4A-ELC2 free-peptide
T8 peptide: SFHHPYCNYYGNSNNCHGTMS
Procedure: Coated plates were then blocked with ELISA diluent (PBS+0.5% BSA+0.05% Tween20) for 1-hour, washed 3×300 μL in PBST (PBS+0.05% Tween20, Thermo Cat#28352), and then the antibodies were added to the plate ([…]). After 30 mins incubation (room temperature, with shaking), the plates were washed 3×300 μL in PBST. […] After a final set of washes (3×300 μL in PBST), 50 μL of TMB substrate (BioFx Cat#TMBW-1000-01) was added and the reaction was then quenched after 5-10 mins with 50 μL of stop solution (BioFx Cat#BSTP-1000-01). The quenched reaction wells were detected for absorbance at […] with a BioTek Synergy Microplate Reader using GENS 2.04 software.

[16] = target: T3, recombinant MS4A4A soluble polypeptide …; experiment: ELISA, 0.11 ug/ml antibody
Procedure: as §1

Chain of FcγRIIIa receptor (V158 variant) (P08637 other isoform, or with tags, fused parts or gaps mutant limits assumed): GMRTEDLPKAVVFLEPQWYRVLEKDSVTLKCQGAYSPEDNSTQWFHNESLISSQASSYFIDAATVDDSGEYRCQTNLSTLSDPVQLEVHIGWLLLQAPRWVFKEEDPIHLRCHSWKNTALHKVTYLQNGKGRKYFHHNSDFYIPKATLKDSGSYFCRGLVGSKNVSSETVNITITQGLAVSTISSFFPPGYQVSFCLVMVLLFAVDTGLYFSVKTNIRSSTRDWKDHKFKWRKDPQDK

B1: anti-MS4A4A antibody 4A-313 NSLF huIgG1 (antibody)
heavy: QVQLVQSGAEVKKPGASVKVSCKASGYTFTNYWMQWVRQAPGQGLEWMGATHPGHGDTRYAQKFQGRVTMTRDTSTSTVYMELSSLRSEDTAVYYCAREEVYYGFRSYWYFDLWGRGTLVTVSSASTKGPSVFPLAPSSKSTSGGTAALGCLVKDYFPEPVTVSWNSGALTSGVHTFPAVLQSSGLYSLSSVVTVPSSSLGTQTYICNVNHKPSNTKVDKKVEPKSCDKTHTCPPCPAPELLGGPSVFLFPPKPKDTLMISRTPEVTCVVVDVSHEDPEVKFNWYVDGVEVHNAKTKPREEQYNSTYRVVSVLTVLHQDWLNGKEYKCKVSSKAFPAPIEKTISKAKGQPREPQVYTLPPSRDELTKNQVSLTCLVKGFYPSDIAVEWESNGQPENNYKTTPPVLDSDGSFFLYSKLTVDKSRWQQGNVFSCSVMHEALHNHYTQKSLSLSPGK
light: EIVLTQSPATLSLSPGERATLSCRASESVDNYGVSRMNWYQQKPGQAPRLLIYGASNQGSGIPARFSGSGSGTDFTLTISSLEPEDFAVYYCQQSKEVPPTFGGGTKVEIKRTVAAPSVFIFPPSDEQLKSGTASVVCLLNNFYPREAKVQWKVDNALQSGNSQESVTEQDSKDSTYSLSSTLTLSKADYEKHKVYACEVTHQGLSSPVTKSFNRGEC
In the case of B1, the “luminescence, ADCP reporter, 3.048316 ng/mL” value [1] is reported as 42, the “luminescence, ADCP reporter, 9.144947 ng/mL” value [1] is reported as 45 and the “luminescence, ADCP reporter, 27.43484 ng/mL” value [1] is reported as 39. The “luminescence, ADCP reporter, 82.30453 ng/mL” value [1] was 58, the “luminescence, ADCP reporter, 246.9136 ng/mL” value [1] was 51 and the “luminescence, ADCP reporter, 740.7407 ng/mL” value [1] was 61. For the same binder, the “luminescence, ADCP reporter, 2,222.222 ng/mL” value [1] was 55, the “luminescence, ADCP reporter, 6,666.667 ng/mL” value [1] was 227 and the “luminescence, ADCP reporter, 20,000 ng/mL” value [1] was 250. The “EC50 of the increase of sTREM2, primary human macrophages” value [2] was 0.025 µg/mL, the “EC50 of the increase of mTREM2, primary human macrophages” value [3] was 0.028 µg/mL and the “luminescence, ADCC reporter, 3.048316 ng/mL” value [4] was 324. The “luminescence, ADCC reporter, 9.144947 ng/mL” value [4] was 356, the “luminescence, ADCC reporter, 27.43484 ng/mL” value [4] was 347 and the “luminescence, ADCC reporter, 82.30453 ng/mL” value [4] was 360. The “luminescence, ADCC reporter, 246.9136 ng/mL” value [4] was 332, the “luminescence, ADCC reporter, 740.7407 ng/mL” value [4] was 363 and the “luminescence, ADCC reporter, 2,222.222 ng/mL” value [4] was 431. The “luminescence, ADCC reporter, 6,666.667 ng/mL” value [4] was 415 and the “luminescence, ADCC reporter, 20,000 ng/mL” value [4] was 442.

B2: anti-MS4A4A antibody 4A-450 NSLF huIgG1 (antibody, V domains shown)
VH: QVQLVQSGSELKKPGASVKVSCKASGYAFTSYGLSWVRQAPGQGLEWMGWINTYSGVPTYAQGFTGRFVFSLDTSVSTAYLQISSLKAEDTAVYYCARTMADYWGQGTLVTVSS
VL: DVVMTQSPLSLPVTLGQPASISCKSSRSLLYSAGKTYLSWFQQRPGQSPRRLIYLVSKLDSGVPDRFSGSGSGTDFTLKISRVEAEDVGVYYCWQGIDFHQTFGGGTKVEIKR
With B2 the “EC50 of the increase of sTREM2, primary human macrophages” value [2] was 0.069 µg/mL and the “EC50 of the increase of mTREM2, primary human macrophages” value [3] was 0.039 µg/mL.

B3: anti-MS4A4A antibody 4A-202 (antibody, V domains shown)
VH: QVQLQQSGAELARPGASVKLSCKASGYTFTNYWMQWVKQRPGQGLEWIGATHPGHGDTRYTQKFKGKATLSADKSSSTAYMQLSNLASEDSAVYYCAREEVYYGFRSYWYFDVWGRGTLVTVSS
VL: not shown
notes: murine parental; tested as mouse IgG or as human IgG1 Fc chimera (hFc), told under assay
In the case of B3, the “ELISA OD” value [5] is reported as 1.22, the “ELISA OD” value [6] is reported as 0.111 and the “ELISA OD” value [7] is reported as 1.16. For the same binder, the “ELISA OD” value [8] was 1.23, the “ELISA OD” value [9] was 0.084 and the MFI [10] was 216. For the same binder, the MFI [11] was 31700, the “ELISA OD” value [12] was 0.111 and the “ELISA OD” value [13] was 0.188. The OD450 [14] was 0.141, the binding result [15] was “binds” and the “ELISA OD” value [16] was 0.079.

B4: anti-MS4A4A antibody 4A-25 (antibody, V domains shown)
VH: QVTLKESGPGILQPSQTLSLTCSFSGFSLRTSDMGVGWVRQPSGEGLEWLADIWWDDNKYYNPSLKSRLTISKDTSSNQVFLKITSVDTADTATYYCARRANYGNLFDYWGQGTAVTVSS
VL: DIVMTQSLKFMSTSVGDRVSITCKASQNVRSAVAWYQQKPGQSPKVLIYWASNRHTGVPDRFTGSGSGTDFTLTISNVQSEDLADYFCLQHWNYLTFGSGTKLEIK
notes: murine parental; mFc = murine Fc; also called 4A-25.mFc
In the case of B4, the “ELISA OD” value [5] is reported as 1.12, the “ELISA OD” value [6] is reported as 0.091 and the “ELISA OD” value [7] is reported as 1.38. The “ELISA OD” value [8] was 1.26, the “ELISA OD” value [9] was 0.063 and the MFI [10] was 648. B4: binds [15].
